Experimental data taken from publication PMC4605325, “The STAT3 HIES mutation is a gain-of-function mutation that activates genes via AGG-element carrying promoters”.

How the values were obtained:
[1] = target: T1, Myc-STAT3 wild type (purified) (UniProt P40763 1-770); assay: competition; 200-fold unlabeled competitor; Pull-down: 20 mM Hepes pH 7.9, 100 mM KCl, 5 mM MgCl2, 0.1 mM EDTA, 4 mM DTT, 12% glycerol, 60 min room temperature (Fig 6D: 30 min on ice); EMSA: LightShift chemiluminescent kit, buffer not stated; conditions: protein: recombinant; tags: Myc; chain copies: 2
[2] = target: Myc-STAT3 V461/462/463A (purified) (UniProt P40763 1-770, V461A;V462A;V463A); assay: pull-down; IL-6; enhanced vs WT; Pull-down: 20 mM Hepes pH 7.9, 100 mM KCl, 5 mM MgCl2, 0.1 mM EDTA, 4 mM DTT, 12% glycerol, 60 min room temperature (Fig 6D: 30 min on ice); EMSA: LightShift chemiluminescent kit, buffer not stated; conditions: protein: recombinant; tags: Myc; chain copies: 2; label: 5'-biotin
[3] = target: Myc-STAT3 R382Q (purified) (UniProt P40763 1-770, R382Q); assay: as above; conditions: protein: recombinant; tags: Myc; chain copies: 2; label: 5'-biotin
[4] = target: T1, Myc-STAT3 wild type (purified); assay: EMSA; 2 ug protein, 1 nM probe; less efficient than SIE; Pull-down: 20 mM Hepes pH 7.9, 100 mM KCl, 5 mM MgCl2, 0.1 mM EDTA, 4 mM DTT, 12% glycerol, 60 min room temperature (Fig 6D: 30 min on ice); EMSA: LightShift chemiluminescent kit, buffer not stated; conditions: protein: recombinant; tags: Myc; chain copies: 2; label: 5'-biotin
[5] = target: Myc-STAT3 C-terminal region (purified) (UniProt P40763 465-770); assay: pull-down; IL-6; Pull-down: 20 mM Hepes pH 7.9, 100 mM KCl, 5 mM MgCl2, 0.1 mM EDTA, 4 mM DTT, 12% glycerol, 60 min room temperature (Fig 6D: 30 min on ice); EMSA: LightShift chemiluminescent kit, buffer not stated; conditions: protein: recombinant; tags: Myc; label: 5'-biotin
[6] = target: Myc-STAT3 1-355 (purified) (UniProt P40763 1-355); assay: as above; conditions: protein: recombinant; tags: Myc; label: 5'-biotin
Chain of Myc-STAT3 1-355 (purified) (P40763 1-355): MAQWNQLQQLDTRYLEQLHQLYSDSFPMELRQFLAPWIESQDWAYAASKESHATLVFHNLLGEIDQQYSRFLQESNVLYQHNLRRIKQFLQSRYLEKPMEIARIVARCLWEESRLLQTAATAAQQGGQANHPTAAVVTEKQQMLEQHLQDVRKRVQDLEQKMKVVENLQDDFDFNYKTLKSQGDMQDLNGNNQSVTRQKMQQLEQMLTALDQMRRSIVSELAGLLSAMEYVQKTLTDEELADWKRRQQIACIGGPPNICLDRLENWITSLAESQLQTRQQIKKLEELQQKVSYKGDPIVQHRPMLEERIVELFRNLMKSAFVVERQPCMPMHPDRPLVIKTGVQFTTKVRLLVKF

T1 sequence (P40763 whole entry): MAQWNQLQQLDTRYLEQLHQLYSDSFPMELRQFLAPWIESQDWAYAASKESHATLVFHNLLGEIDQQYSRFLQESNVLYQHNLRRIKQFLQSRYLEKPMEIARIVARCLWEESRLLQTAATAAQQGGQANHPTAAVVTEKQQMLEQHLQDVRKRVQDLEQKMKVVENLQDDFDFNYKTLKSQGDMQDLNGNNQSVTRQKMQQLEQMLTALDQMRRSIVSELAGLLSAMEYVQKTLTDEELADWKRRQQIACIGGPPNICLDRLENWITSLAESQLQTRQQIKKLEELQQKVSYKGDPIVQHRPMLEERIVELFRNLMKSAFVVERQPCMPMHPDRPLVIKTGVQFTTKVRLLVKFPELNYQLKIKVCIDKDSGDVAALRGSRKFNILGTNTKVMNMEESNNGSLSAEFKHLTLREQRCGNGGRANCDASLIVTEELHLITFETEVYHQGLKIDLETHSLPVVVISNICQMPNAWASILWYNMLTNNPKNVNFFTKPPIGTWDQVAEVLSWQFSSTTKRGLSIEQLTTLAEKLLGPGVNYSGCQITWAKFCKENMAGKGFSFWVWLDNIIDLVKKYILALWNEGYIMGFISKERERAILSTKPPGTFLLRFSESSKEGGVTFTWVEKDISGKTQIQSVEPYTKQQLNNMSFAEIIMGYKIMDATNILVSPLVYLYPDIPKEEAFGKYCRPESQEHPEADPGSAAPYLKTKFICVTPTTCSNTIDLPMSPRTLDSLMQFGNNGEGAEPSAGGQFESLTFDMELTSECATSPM
Chain of Myc-STAT3 C-terminal region (purified) (P40763 465-770): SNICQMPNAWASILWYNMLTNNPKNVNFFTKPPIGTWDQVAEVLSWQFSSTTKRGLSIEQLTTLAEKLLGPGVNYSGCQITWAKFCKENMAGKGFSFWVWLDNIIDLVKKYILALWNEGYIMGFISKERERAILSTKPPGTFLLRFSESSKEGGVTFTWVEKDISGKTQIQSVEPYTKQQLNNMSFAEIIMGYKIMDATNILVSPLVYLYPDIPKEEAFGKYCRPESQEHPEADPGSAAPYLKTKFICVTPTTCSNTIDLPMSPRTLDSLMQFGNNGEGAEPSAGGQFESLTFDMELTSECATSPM
Chain of Myc-STAT3 V461/462/463A (purified) (P40763 whole entry V461A/V462A/V463A): as the sequence (P40763 whole entry) above, with V461A, V462A, V463A counted along it
Chain of Myc-STAT3 R382Q (purified) (P40763 whole entry R382Q): as the sequence (P40763 whole entry) above, with R382Q counted along it

| Binder | binding result [1] | binding result [2] | binding result [3] | binding result [4] | binding result [5] | binding result [6] |
| --- | --- | --- | --- | --- | --- | --- |
| AGG oligo, unlabeled (dsDNA) DNA 1: TTTGGGAGGCCGAGGTGGG DNA 2: CCCACCTCGGCCTCCCAAA | binds |  |  |  |  |  |
| AGG-element oligo (dsDNA) DNA 1: TTTGGGAGGCCGAGGTGGG DNA 2: CCCACCTCGGCCTCCCAAA |  | binds | binds | binds | no binding | binds |
